B1: Transcription factor p65 (Mus musculus), Q04207 (parent)
chain: MDDLFPLIFPSEPAQASGPYVEIIEQPKQRGMRFRYKCEGRSAGSIPGERSTDTTKTHPTIKINGYTGPGTVRISLVTKDPPHRPHPHELVGKDCRDGYYEADLCPDRSIHSFQNLGIQCVKKRDLEQAISQRIQTNNNPFHVPIEEQRGDYDLNAVRLCFQVTVRDPAGRPLLLTPVLSHPIFDNRAPNTAELKICRVNRNSGSCLGGDEIFLLCDKVQKEDIEVYFTGPGWEARGSFSQADVHRQVAIVFRTPPYADPSLQAPVRVSMQLRRPSDRELSEPMEFQYLPDTDDRHRIEEKRKRTYETFKSIMKKSPFNGPTEPRPPTRRIAVPTRNSTSVPKPAPQPYTFPASLSTINFDEFSPMLLPSGQISNQALALAPSSAPVLAQTMVPSSAMVPLAQPPAPAPVLTPGPPQSLSAPVPKSTQAGEGTLSEALLHLQFDADEDLGALLGNSTDPGVFTDLASVDNSEFQQLLNQGVSMSHSTAEPMLMEYPEAITRLVTGSQRPPDPAPTPLGTSGLPNGLSGDEDFSSIADMDFSALLSQISS
partner: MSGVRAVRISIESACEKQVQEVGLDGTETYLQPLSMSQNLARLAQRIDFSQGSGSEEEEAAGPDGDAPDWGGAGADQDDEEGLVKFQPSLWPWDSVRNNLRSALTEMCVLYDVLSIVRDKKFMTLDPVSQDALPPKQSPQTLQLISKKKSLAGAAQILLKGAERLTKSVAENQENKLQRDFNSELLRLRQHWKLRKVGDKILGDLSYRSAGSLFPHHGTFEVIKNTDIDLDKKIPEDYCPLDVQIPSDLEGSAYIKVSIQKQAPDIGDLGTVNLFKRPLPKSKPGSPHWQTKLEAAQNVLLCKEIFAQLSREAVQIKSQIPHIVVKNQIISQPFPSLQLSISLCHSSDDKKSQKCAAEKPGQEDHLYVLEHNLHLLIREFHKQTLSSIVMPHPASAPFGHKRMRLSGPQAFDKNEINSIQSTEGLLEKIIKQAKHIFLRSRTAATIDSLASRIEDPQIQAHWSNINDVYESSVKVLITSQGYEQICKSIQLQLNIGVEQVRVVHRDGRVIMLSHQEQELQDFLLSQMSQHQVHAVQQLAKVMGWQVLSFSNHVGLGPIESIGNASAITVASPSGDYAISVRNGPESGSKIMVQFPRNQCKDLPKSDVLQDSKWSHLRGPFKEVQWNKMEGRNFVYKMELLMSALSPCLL

Variants of: B1
Settings: with med17_mouse Med17, Q8VCD5

| effect of a mutation on the interaction | Variant |
| --- | --- |
| disrupting interaction | MDDLFPLIFPSEPAQASGPYVEIIEQPKQRGMRFRYKCEGRSAGSIPGERSTDTTKTHPTIKINGYTGPGTVRISLVTKDPPHRPHPHELVGKDCRDGYYEADLCPDRSIHSFQNLGIQCVKKRDLEQAISQRIQTNNNPFHVPIEEQRGDYDLNAVRLCFQVTVRDPAGRPLLLTPVLSHPIFDNRAPNTAELKICRVNRNSGSCLGGDEIFLLCDKVQKEDIEVYFTGPGWEARGSFSQADVHRQVAIVFRTPPYADPSLQAPVRVSMQLRRPSDRELSEPMEFQYLPDTDDRHRIEEKRKRTYETFKSIMKKSPFNGPTEPRPPTRRIAVPTRNSTSVPKPAPQPYTFPASLSTINFDEFSPMLLPSGQISNQALALAPSSAPVLAQTMVPSSAMVPLAQPPAPAPVLTPGPPQSLSAPVPKSTQAGEGTLSEALLHLQFDADEDLGALLGNSTDPGVFTDLASVDNSEFQQLLNQGVSMSHSTAEPMLMEYPEAITRLVTGSQRPPDPAPTPLGTSGLPNGLSGDEDFSSAAASAAAALLSQISS [I535A;D537A;M538S;D539A;F540A;S541A] |
| disrupting interaction | MDDLFPLIFPSEPAQASGPYVEIIEQPKQRGMRFRYKCEGRSAGSIPGERSTDTTKTHPTIKINGYTGPGTVRISLVTKDPPHRPHPHELVGKDCRDGYYEADLCPDRSIHSFQNLGIQCVKKRDLEQAISQRIQTNNNPFHVPIEEQRGDYDLNAVRLCFQVTVRDPAGRPLLLTPVLSHPIFDNRAPNTAELKICRVNRNSGSCLGGDEIFLLCDKVQKEDIEVYFTGPGWEARGSFSQADVHRQVAIVFRTPPYADPSLQAPVRVSMQLRRPSDRELSEPMEFQYLPDTDDRHRIEEKRKRTYETFKSIMKKSPFNGPTEPRPPTRRIAVPTRNSTSVPKPAPQPYTFPASLSTINFDEFSPMLLPSGQISNQALALAPSSAPVLAQTMVPSSAMVPLAQPPAPAPVLTPGPPQSLSAPVPKSTQAGEGTLSEALLHLQFDADEDLGALLGNSTDPGVFTDLASVDNSEFQQLLNQGVSMSHSTAEPMLMEYPEAITRLVTGSQRPPDPAPTPLGTSGLPNGLSGDEDFSSIADMAASALLSQISS [D539A;F540A] |
| disrupting interaction | MDDLFPLIFPSEPAQASGPYVEIIEQPKQRGMRFRYKCEGRSAGSIPGERSTDTTKTHPTIKINGYTGPGTVRISLVTKDPPHRPHPHELVGKDCRDGYYEADLCPDRSIHSFQNLGIQCVKKRDLEQAISQRIQTNNNPFHVPIEEQRGDYDLNAVRLCFQVTVRDPAGRPLLLTPVLSHPIFDNRAPNTAELKICRVNRNSGSCLGGDEIFLLCDKVQKEDIEVYFTGPGWEARGSFSQADVHRQVAIVFRTPPYADPSLQAPVRVSMQLRRPSDRELSEPMEFQYLPDTDDRHRIEEKRKRTYETFKSIMKKSPFNGPTEPRPPTRRIAVPTRNSTSVPKPAPQPYTFPASLSTINFDEFSPMLLPSGQISNQALALAPSSAPVLAQTMVPSSAMVPLAQPPAPAPVLTPGPPQSLSAPVPKSTQAGEGTLSEALLHLQFDADEDLGALLGNSTDPGVFTDLASVDNSEFQQLLNQGVSMSHSTAEPMLMEYPEAITRLVTGSQRPPDPAPTPLGTSGLPNGLSAAASAAAIADMDFSALLSQISS [G528A;D529A;E530A;D531S;F532A;S533A;S534A] |
